# In patent publication US8048659:
# T1: H-Cys(Npys)-Trp-Lys-Lys-Lys-Pro-Ala-Pro-Phe-Ala-Ala-Ala-LC-PEGA resin
# T1 chain: CWKKKPAPFAAA
# T2: EuMac-Peptide-PEGA beads (Formula XII)
# T2 chain: CWKKKPAPFAAA
# B1: Proteinase K Molecular Biology, SIGMA Catalog No. P-4850 (protein)
# chain: AAQTNAPWGLARISSTSPGTSTYYYDESAGQGSCVYVIDTGIEASHPEFEGRAQMVKTYYYSSRDGNGHGTHCAGTVGSRTYGVAKKTQLFGVKVLDDNGSGQYSTIIAGMDFVASDKNNRNCPKGVVASLSLGGGYSSSVNSAAARLQSSGVMVAVAAGNNNADARNYSPASEPSVCTVGASDRYDRRSSFSNYGSVLDIFGPGTSILSTWIGGSTRSISGTSMATPHVAGLAAYLMTLGKTTAASACRYIADTANKGDLSNIPFGTVNLLAYNNYQA
# Columns and labels:
# [1] = target: T1, H-Cys(Npys)-Trp-Lys-Lys-Lys-Pro-Ala-Pro- …
# [2] = target: T2, EuMac-Peptide-PEGA beads (Formula XII)
protein,measurement,setting,value
B1,"absorbance of supernatant (275 nm and 350 nm peaks) after hydrolysis at pH 7.1, 15.1 ug/mL Proteinase K",[1],the release of the free peptide was much greater for the Proteinase K sample
same,"absorbance of supernatant with time after hydrolysis at pH 8.01, 14.2 and 28.4 ug/mL Proteinase K",[1],demonstrate that Proteinase K cleaves a peptide from the Peptide-PEGA-Beads
same,"ratio of cleaved peptide, 28.4 vs. 14.2 ug/mL Proteinase K (absorbance at 280 nm)",[1],"The doubling, of the enzyme concentration resulted in an approximately 1.3 fold increase in cleaved peptide"
same,"absorbance of supernatant at 280 nm after hydrolysis at pH 8.0, 25.5 ug/mL Proteinase K",[2],the Proteinase K did release a cleavage product containing tryptophan from the EuMac-Peptide-PEGA-Beads
same,luminescence of beads before and after 115 min of Proteinase K hydrolysis,[2],The drastic difference in luminescence before and after Proteinase K hydrolysis demonstrated that the EuMac-labeled part of the peptide was released from the bead
